The target in experiment [1] is retromer (VPS26–VPS29–VPS35) (UniProt O75436). Kind of experiment: ITC.
Experiment [2] shares this target. Kind of experiment: SEC-MALS. Background: In gel filtration, larger molecules generally elute earlier.
The target of the next experiment is human VPS29 (human) (UniProt Q9UBQ0). Briefly: ITC. Background: Isothermal titration calorimetry measures the heat released or taken up as one component is titrated into another.

The term Kd denotes the concentration at which binding is half-saturated. Usually stoichiometry N stands for a count of units in the complex or per binding partner.

RidL_(30–236) (domain or fragment) gave a Kd in experiment [1] of 164 nM. This lies in the sub-micromolar range. Turning to “retromer (VPS26–VPS29–VPS35) (from UniProt O75436;Q9UBQ0;Q96QK1) (complex)”, the stoichiometry N in experiment [2] was found to be 2. Substance “VARPc (VARP residues 396–746, the two cysteine-rich domains) (from UniProt Q96NW4 396-746) (domain or fragment)” showed a dissociation constant (Kd) in experiment [1] of 3000 nM. This counts as single-digit micromolar. “TBC1D5TBC (TBC GAP domain of human TBC1D5, residues 1–419) (from UniProt Q92609 1-419) (domain or fragment)”: the Kd in experiment [1] was 450 nM. In the case of “RidL (Lpg2311/Ceg28), full length (from UniProt Q5ZT54 1-1167) (natural protein)”, the figures for the Kd (with human VPS29 (human); in experiment [1]) were 181 nM and 151 nM, respectively. The stoichiometry N (RidL per retromer (printed as 1:1)) in experiment [2] was 1. The same substance registered a stoichiometry N (RidL per retromer (printed as 2:2)) in experiment [2] of 1.

For the origin of these results see paper PMC5748213.
